Test results published in the domain aggregation screens of Martell et al. (2025).

Experiment: soluble fraction after stress (log2 fold change); higher = more stays soluble; pooled small domains, quantitative proteomics
Conditions: stress: 50 degC
Method in brief: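 After stress at 50°C, the amount of each protein still soluble was measured. This was done on pooled custom libraries of small protein domains, using high-throughput quantitative proteomics. The figure given is a base-two log fold change and stands for aggregation propensity, with higher values meaning more protein stays in solution.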

Sequence | soluble fraction (log2)
HMESILDDFPGLGAVRRAALLEHFGDIDRLRAASAVEITEVDGFGDVLARELHDFLHRPKPDA | -0.455
HMTKQDYLTALQQELNKNAVADAEDIVSEYEQHFQFKLADGFTEEEIAAKLGAPAQIALQFAG | 0.167
HMNTRWDDAAQTWLRKVIEQQPVLVQISAAKRLRDQAEQRAREAGEEVVTEQHVKRAGLELGFGEP | 0.0799
HMTSPQGIERFLASGVIEGVGKAMAARIVAVFGGQTLEIIEKQPHRLREVRGIGVKTAEKIHASYQEKA | -0.81
HMEMDPKELGRQVLAKRKEKGWSQEQLGKMAEISRNYVSQIERGEADSISIKIINRLAIALGVSPSDLGE | 0.0486
HMDGYVPAERIASEVGVSARTITREMHGLEMTLMPYGIALLRRTGAGFMLAGTAKALADLRKHMTEDADTQ | -0.00161
HMSMTLSVLDDVRGLSESRRKQLFHSFGSIKKLREQSKETLMSIPYLPEKVALELYDKLHEE | -0.218
HMGARHPLPYPFARAHGLLLEADGERSTLWASTNVSPAALSEVMRKYAVDVIEEEPPETLSQRIAAAYAA | 0.0215
HMTRNEFLTALRGRLSALPKEEQDAALKYYEEYFDEAESEEDAARQLGSPDSIAEKILADYA | -0.17
HMNHLLYPNPANNFIWIKNSTSNTAVIYNLQGVMSKVEVSEEGKIDISRFSPGLYMIKQGERIYKFTIA | -1.34
HMEASVNAPMPGKIVSVSVSEGQQVNAGDVLLILEAMKMQNEITADAAGTVKAINVNAGQSVKNGDSLVIL | 0.469
HMSNDRSYLARLQDYYAEHRALPSYASIGALLGLRSKSSVAALVARLKLAGFVESTPDRRLAPTRRFF | -3.24
HMKDDLTWSEGLMPNVVGMGLRDAMFMLENSGLRVNYSGRGKVTRQSPQPGVRIKRGATVAIELRL | -0.395
HMNEKMKEIGLRIKELRELSDISAQGMADHLKIPLETYQEYEDGKKDIPASILFEISQKMEVDMGLLLTGE | -0.0988
HMKGKIYFFEEGVDRVGGVERVISTLANEFSKKYKVNVISFYKTRKETFFKYNSDIDITYLSK | 0.14
HMRDDAIQQGREIVERELHRLDLAYTTLTDVLAKLEYEKLDDLYAAVGFGIRSPHSVAAAALQVERDKA | -0.569
HMQPDFLDAKASLALLGVRPQTLYAYVSRGAIRSVPQPGTKAHLYSRSDIERVMARAAARAG | -1.12
HMHPFELNTVTEGQLKRLPFLSDLQIRELLEYRSRYGKMLTLYELKNVEAFDLETISLLVPFIYISEI | -1.38
HMKLNETIAEARKRKGLTQEQLAQKLYVTRQAVSRWERGEVVPGIDMLKLIAITLEEPIVHLL | -0.769
HMPQGFEDLTEREREVLTLIAEGRTNQEIADALVISIKTVNRHRENIMAKLNLHSRVELVRYAIAQGLI | -0.474
HMLSDEDMMELAIIENLQRENLNPIEEARAYESLIDKGFTHTEIADKMGKSRPYISNSIRLLSL | 0.162
HMRSFGTLRRLPSGRYQASYAGPDLRRHAAPTTFETKLDAEGWLRDEHRMIERDEWTAPAARSQLK | 0.214
HMKHTQTDEGELLSTLRTLFPNSSSSSLRKMLTQGRILVNQEVVHRAKHALQAGDEIEVLARQ | -0.122
HMGAIVTGTVVEIRSDVVIVNAGLKSEGVVPIEQFRNEAGELEVSVGDEVKVALDALEDGFGETRLS | -0.329
HMSKLSLREIVKKFEEQIIQLHKRGLNHSEISREIVTKNSIDLGDSHIDSLRRAISVHLQTP | -0.0999

Sequence | soluble fraction (log2)
HMVSLSENQKIVLESLNTAMSARELMEILNLSDISHFRRNILNPLLLEGLIVRTKPDKPKSSKQKYIKANF | -1.15
HMELLSGTVEKVLTSGVLVKLPGGAIGFIPNSEMGTPRGTNHGKMFPAGTPLQVMVVEVNQDRGRITLSR | -1.45
HMQLASILDDIPGIGKKRKENLLTHFGSFSKIQSADIDALAEVPGISRDLAETIHTYLKTHQ | 0.0967
HMSGIQNNFITRLKKVLAPTIGIAEEISDLLNISIDSAYRRIRGETDFTFEEIYIITRKHKISIDEIYG | -3.58
HMVQIIQLQGTDKRLYELVAPLVMNPEILKQNYNYPFRTSEDFVWFVAVDKKKVIGFIPVEEKKKEYVI | -0.0678
HMHYALTVDFPAALEARIDPAHRAALRGVLAHDPRPSYQSDPERLYGVAFAGKNVKFTVEDGVLTVRKIEE | 0.0218
HMILVLKPGAPEDLKNELIHDIEKMGLRVHVSVGEGTTIIGLIGDTSKISKYTFSSYEIVSNVLRVT | -0.0106
HMTVVHRQVHLQPDQGAFRAALYSHKAVLSEQTDDQGAINLEIRLPESDFLRLLNSSGLKLQDLVP | -0.0198
HMEALPELTDRQRQVYEFIEARIAEWGYPPTIREIGQHLGIKSTNGVADHLKALKRKGYLQQ | -0.0721
HMDGLGLGAVILAQRKRQGWTQEDLAARIGVSKGAVSKWETGQSYPDLPLVPRLAALFHITVDELLDYR | -0.662
HMTITPEVIVNHFKNLDLFFTKNGNYYEFKKKGTENILFKYGIYKQKPNIFVKIQRYPISSLSDLERIPI | -0.844
HMTYFDIAPELLTVYKEINDIPRDINQIVRKTGLSINEVSYKTMILQLEDKIVELPGQRFIRNS | -1.99
HMGPKPVDMSPIPEGQRNQVLHDWMYGRAANHPENWGQIRSDALERGLKSGLKADEIHAITGSVARALGLE | 0.12
HMSEPTVVAINETLTSERLDRYLTTQLPHISRGGIQRLLRKGNILVDGKPAKPTQHPVAGQTVEITWPIPK | -0.359
HMDIEVEVPNLVGMSLDEAKSIIQSMGLVVGLTIEDPSAKVSDNSVTKQKPTYQTGVKLRSGDMIDIWYAG | -0.102
HMKEIYIDRGKEALEKELRKRKIPFQEFLSKENTNLLFDTLKIPSHDLEELYLEIGNGKHAASTVVNTVY | 0.136
HMHYKLIIFENHTKSTSLDITPEQARQILGVTDYTPEQYEILAEITNRPASYFMDDLVDYYVD | -2.39
HMLPKNITNTIDHWIQKFPQGKQRSAIIAALHAVQHHNKGFLTNDLLNQVADYIDVPKMNVYEVATFYSM | 0.0843
HMQPVLSDAEVNDLKNIAGGERGYNQLMDWAGNNLTAQDAKSYDDVLATGNKAAISFAIKALMGQYEDAN | 0.047
HMVSPFQQQIADKVHNEIIAAKFNYDNATNENERLLAQLQAKKARELANQYGLDMSSYGADTTAERS | 0.235
HMDTHDVQVPQEGQGLRLDLFLTDHIEGSRSFIQTIIKDGHVILNGKKAKANSRLNEGDYVVWSIPKPE | -0.0683
HMVITDPFFLEPENLVKDAVALMEKYRISGVPITKKGKLVGILTNRDLRFESNYEQPIANVMS | -0.0305
HMQEEELYPRLEEVINQHRGKGEDLIMVLHKAQNLFGYLPRRAQEMVAEGLNVSLNEVYGVITFYNFFST | -0.0621
HMDDGLTRLTPRENEVLELMAQGRSNTAIAERLVLSYGAVEKNVSSIFTKLDLPLDAGDHRRVLAVLRRLN | -0.688
HMKNMSLGERIKEQRKSSGLSQEKVAEFVGVSRQAVTKWETGQSAPSTENLFKLAEIFGTTVDILLA | 0.000199

Sequence | soluble fraction (log2)
HMGRKPVSPEIVERVLQLAKSNPDWGYEHIAGTMRYLGYNVSATTIRHILEANGIVPDPERRL | -0.128
HMTTLTPIGKMKGEIDGDFEAFYLAVDKDGQVYLNRDPDYSENRYEKSRGWELVTREQLAVYEKELHFIP | -0.406
HMFPDLTGDELRIVDLLNTANDLQVNIITAKTNLPISRVTSLLFQLEMKGVVKPLAGGMYHLLG | -1.31
HMEKSSALRAKEAFMALYHDGKFKPGTKIPSESNMAELLGVSRETWRKALALLRGDGVLYSKHGSGTYLLE | 0.11
HMETGFADTLRKFRKEADMTQEKLAEALGVTTGAVYKWENGRSTPEVRLLVEMADLFGTSVDALLDYKVR | -0.622
HMAVPFTIDVSQNGRYFIEEDNQVVEVSIGFLEDRFLRIIKSNPDIEVIIRGDAKASYESIAELLAVLQ | -1.06
HMDQQTKFKTALAALAASAETKDRKLTKADVKEFLEDMDLGEEQMKLVYAYLASKHIHVEGAE | 0.178
HMDKEPTHLHTFRLIKEGKSSEEIAEIRNITLGTVNTHLAKLIAVGELTIEQVISKHRLDYVMEAIKNSK | -0.16
HMAGTKRAENIEIQKLTEVLEARLDSVGFFWPDHKAESMIMTLRNMISRLPLTEADVRVFHGIIKSLADK | -0.527
HMAVGVFQKEDGYWGYRFSIIVDGKTIARRKFTDENGSKLRTKSEAVKARAAAMVAARMERVS | -2.96
HMKYNETEFKNLVAKLYNGEIEIVGKFTGLSYPILVKDKYGIMLSQKANLILNYRPTINIALNKTEYAMN | -0.0487
HMKFINISIDKSGNLFINKKSIKFQDLKYNVVNLVDESKNLVVLNADENISHGYVISVLDVLRSIDGLKLA | -2.18
HMVSDAWITGKVKSQLLADDVTPGMKIDVDTEDRIVSLKGTVPSLTARNEAIRIASHTKGVRTVDADELIV | 0.118
HMRRATLERLANNTAEKAIRYKRSLALEPMNPQERRIIHAALQEVEGVSTHSVGTEPNRKVIVVPDGV | -0.0677
HMTNKKIILEIFQNSDKPLIVEEISKKMFEKTGKKMILSTIYRNLKNMEDVGILKKIYNEDGSYMYIF | -0.953
HMSPLQLGNYNTLRITRFTDHGAYLDGGDVGEILMPKTYVLPEMKPGDEVRVFVYLDQEERLVGTTET | -0.017
HMTGSAETRGITLTDEQVTVWAKDGSWANYVYRATDGNWYDGSGRLYYENGGGEWTQAATGEQGS | -0.0258
HMEDPPISQEQRQALFKMAHDHLGKDEGNKAILTLIQSHGLNSTTGMKVSTYNTIMEELVSTIQSLAA | -0.0686
HMKIEEIAYSTFISMLDKGEVSKVELKDNLIYIETKADDKTIYTTGRMEDPDLTNRLIEAGVDFTEIE | -0.317
HMDTDVFLMDLRGESRDYAEEVLINNNLEVKVIILPFSKRHYPGKVVEMRPSPFTKVKKGRIITLSVAGN | -3.71
HMSSEPASLVGKTGVAASVLRPSGRVEVNGEYYDAVSINGFIEKGESVFVHKYENAQLYVSKNSE | 0.0445
HMSMHVHTPNPDFKPSNTNALQEGQLVEHPKFGFGKVQKIETEGLNKKASIQFEHFGEKTLLLSFAKLRII | 0.0178
HMEPDEYTVRQAFMKFDVGGEGRVPRDKLKALLETLGLELSAQQVRESEEQLDPEGTGFTSYGDFLMWWN | -1.12
HMNDTSLIIDNLMLKLGNNIKNFSEIYSLLRKNLAEYGEEFIKSKVDYVLKNFNDNIEENLKKLLTE | -0.218
HMLPKAERREQLMAVARSVFAEQGYHTTSMEIIAETAGVSKPLLYQHFPSKLDLYLALLDAGID | -1.56
